The values below come from US20090029370A1 (TRUSTEES OF BOSTON UNIVERSITY, published 2009).

For the assay, the target named is T1, alpha-fragment of EGFP (alphaCys-fragment, 1-158) without oligonucleotide (Aequorea victoria, UniProt P42212 1-158 = GFP).
T1 construct: range 1-158; also called α-subunit of EGFP
The experiment in a line: fluorescence spectra after mixing the fragments in vitro.

B1: beta-fragment of EGFP (betaCys-fragment, 159-234 aa) without oligonucleotide (other)
chain: not shown
notes: range 159-234; also called β-subunit of EGFP
On to B1, for which the binding result is listed as “no binding”.
